Data on 2 molecules can be found in publication PMC2815190 (Molecular immunology, 2009).

In series [1] the target is human Toll-like receptor 8 with the RQSYA motif deleted (human) (UniProt Q9NR97). Description: immunoblot of cell lysate.
Series [2] deals with the molecule itself. Description: immunoblot of cell lysate.

With “human Toll-like receptor 8 with the RQSYA motif deleted (from UniProt Q9NR97-1 27-1041)”, in series [1], the stoichiometry N came to 2.

B1: human Toll-like receptor 8, wild type (receptor, UniProt Q9NR97-1 27-1041, looked up)
chain: EENFSRSYPCDEKKQNDSVIAECSNRRLQEVPQTVGKYVTELDLSDNFITHITNESFQGLQNLTKINLNHNPNVQHQNGNPGIQSNGLNITDGAFLNLKNLRELLLEDNQLPQIPSGLPESLTELSLIQNNIYNITKEGISRLINLKNLYLAWNCYFNKVCEKTNIEDGVFETLTNLELLSLSFNSLSHVPPKLPSSLRKLFLSNTQIKYISEEDFKGLINLTLLDLSGNCPRCFNAPFPCVPCDGGASINIDRFAFQNLTQLRYLNLSSTSLRKINAAWFKNMPHLKVLDLEFNYLVGEIASGAFLTMLPRLEILDLSFNYIKGSYPQHINISRNFSKLLSLRALHLRGYVFQELREDDFQPLMQLPNLSTINLGINFIKQIDFKLFQNFSNLEIIYLSENRISPLVKDTRQSYANSSSFQRHIRKRRSTDFEFDPHSNFYHFTRPLIKPQCAAYGKALDLSLNSIFFIGPNQFENLPDIACLNLSANSNAQVLSGTEFSAIPHVKYLDLTNNRLDFDNASALTELSDLEVLDLSYNSHYFRIAGVTHHLEFIQNFTNLKVLNLSHNNIYTLTDKYNLESKSLVELVFSGNRLDILWNDDDNRYISIFKGLKNLTRLDLSLNRLKHIPNEAFLNLPASLTELHINDNMLKFFNWTLLQQFPRLELLDLRGNKLLFLTDSLSDFTSSLRTLLLSHNRISHLPSGFLSEVSSLKHLDLSSNLLKTINKSALETKTTTKLSMLELHGNPFECTCDIGDFRRWMDEHLNVKIPRLVDVICASPGDQRGKSIVSLELTTCVSDVTAVILFFFTFFITTMVMLAALAHHLFYWDVWFIYNVCLAKVKGYRSLSTSQTFYDAYISYDTKDASVTDWVINELRYHLEESRDKNVLLCLEERDWDPGLAIIDNLMQSINQSKKTVFVLTKKYAKSWNFKTAFYLALQRLMDENMDVIIFILLEPVLQHSQYLRLRQRICKSSILQWPDNPKAEGLFWQTLRNVVLTENDSRYNNMYVDSIKQY
Turning to B1, the “stoichiometry N” value in series [2] came out at 2.
